# T1: APBA2_1, Q99767
# T1 sequence (Q99767 563-664, limits assumed, looked up): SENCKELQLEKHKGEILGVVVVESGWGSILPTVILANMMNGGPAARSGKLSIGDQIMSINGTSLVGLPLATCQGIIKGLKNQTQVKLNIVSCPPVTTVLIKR
# T2: APBA3_1, O96018
# T2 sequence (O96018 389-490, limits assumed, looked up): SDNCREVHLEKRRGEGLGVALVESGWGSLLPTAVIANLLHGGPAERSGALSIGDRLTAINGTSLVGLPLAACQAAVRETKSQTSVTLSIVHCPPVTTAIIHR
# T3: DFNB31_2, Q9P202
# T3 sequence (Q9P202 274-371, limits assumed, looked up): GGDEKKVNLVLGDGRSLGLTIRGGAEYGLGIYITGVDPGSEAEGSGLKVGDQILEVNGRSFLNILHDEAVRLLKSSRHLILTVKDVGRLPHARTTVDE
# T4: DVL3, Q92997
# T4 sequence (Q92997 244-331, limits assumed, looked up): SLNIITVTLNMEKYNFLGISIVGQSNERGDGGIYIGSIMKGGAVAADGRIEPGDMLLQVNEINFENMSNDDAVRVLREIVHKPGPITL
# T5: HTRA3, P83110
# T5 sequence (P83110 354-453, limits assumed, looked up): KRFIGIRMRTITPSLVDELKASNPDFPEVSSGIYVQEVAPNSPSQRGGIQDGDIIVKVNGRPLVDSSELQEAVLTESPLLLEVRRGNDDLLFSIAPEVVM
# T6: NHERF3_3, Q5T2W1
# T6 sequence (Q5T2W1 238-333, limits assumed, looked up): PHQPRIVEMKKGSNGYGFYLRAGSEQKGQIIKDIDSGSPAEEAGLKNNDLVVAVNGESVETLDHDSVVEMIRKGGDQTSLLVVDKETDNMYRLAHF
# T7: PARD3B_1, Q8TEW8
# T7 sequence (Q8TEW8 196-299, limits assumed, looked up): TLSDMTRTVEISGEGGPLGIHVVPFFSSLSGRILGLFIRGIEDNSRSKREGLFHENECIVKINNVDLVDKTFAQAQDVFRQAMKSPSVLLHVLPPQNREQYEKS
# T8: PDZD7_3, Q9H5P4
# T8 sequence (Q9H5P4 857-944, limits assumed, looked up): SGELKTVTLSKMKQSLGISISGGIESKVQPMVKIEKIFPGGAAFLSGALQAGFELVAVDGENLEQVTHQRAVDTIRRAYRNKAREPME
# T9: SIPA1L2, Q9P2F8
# T9 sequence (Q9P2F8 945-1036, limits assumed, looked up): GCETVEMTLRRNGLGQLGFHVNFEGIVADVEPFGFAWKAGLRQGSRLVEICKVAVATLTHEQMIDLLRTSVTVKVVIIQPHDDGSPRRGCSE
# T10: SNTA1, Q13424
# T10 sequence (Q13424 82-180, limits assumed, looked up): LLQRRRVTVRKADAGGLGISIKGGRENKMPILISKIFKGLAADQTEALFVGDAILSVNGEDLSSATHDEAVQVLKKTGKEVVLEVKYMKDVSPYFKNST
# T11: SNTG1, Q9NSN8
# T11 sequence (Q9NSN8 52-150, limits assumed, looked up): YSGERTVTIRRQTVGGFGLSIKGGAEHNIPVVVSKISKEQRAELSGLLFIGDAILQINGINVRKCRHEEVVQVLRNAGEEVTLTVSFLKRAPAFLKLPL
# T12: TJP3_3, O95049
# T12 sequence (O95049 375-456, limits assumed, looked up): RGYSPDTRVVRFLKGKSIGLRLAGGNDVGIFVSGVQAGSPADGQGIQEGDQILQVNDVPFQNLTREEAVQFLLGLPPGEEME
# Target: T1, APBA2_1, Q99767
# Experiment: holdup assay
# Set-up: key: below the threshold = too weak to quantify, mostly under pKd 3.1 to 4
# Settings: plain residues with an end cap or a label only (N-terminal biotin on a linker: ado-ado)
row,Binder,pKd
1,"KKMPSIESDV [GRIN2A, Q12879]",below the threshold
2,"TSSMRGMDAV [RSRC2, Q7L4I2]",below the threshold

# Target: T2, APBA3_1, O96018
# Experiment: holdup assay
# Set-up: key: below the threshold = too weak to quantify, mostly under pKd 3.1 to 4
# Settings: plain residues with an end cap or a label only (N-terminal biotin on a linker: ado-ado)
row,Binder,pKd
1,"KKMPSIESDV [GRIN2A, Q12879]",below the threshold
2,"TSSMRGMDAV [RSRC2, Q7L4I2]",below the threshold

# Target: ARHGEF12, Q9NZN5-2
# Sequence (Q9NZN5 other isoform, or with tags, fused parts or gaps): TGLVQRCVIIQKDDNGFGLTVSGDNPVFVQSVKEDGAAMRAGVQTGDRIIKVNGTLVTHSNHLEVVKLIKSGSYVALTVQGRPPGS
# Experiment: holdup assay
# Set-up: key: below the threshold = too weak to quantify, mostly under pKd 3.1 to 4
# Settings: plain residues with an end cap or a label only (N-terminal biotin on a linker: ado-ado)
row,Binder,pKd
1,"KKMPSIESDV [GRIN2A, Q12879]",3.69
2,"TSSMRGMDAV [RSRC2, Q7L4I2]",below the threshold

# Target: CASK, O14936
# Sequence (O14936 487-570): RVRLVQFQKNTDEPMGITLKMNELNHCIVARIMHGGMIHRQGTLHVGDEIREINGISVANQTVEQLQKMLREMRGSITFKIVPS
# Experiment: holdup assay
# Set-up: key: below the threshold = too weak to quantify, mostly under pKd 3.1 to 4
# Settings: plain residues with an end cap or a label only (N-terminal biotin on a linker: ado-ado)
row,Binder,pKd
1,"KKMPSIESDV [GRIN2A, Q12879]",below the threshold
2,"TSSMRGMDAV [RSRC2, Q7L4I2]",below the threshold

# Target: T3, DFNB31_2, Q9P202
# Experiment: holdup assay
# Set-up: key: below the threshold = too weak to quantify, mostly under pKd 3.1 to 4
# Settings: plain residues with an end cap or a label only (N-terminal biotin on a linker: ado-ado)
row,Binder,pKd
1,"KKMPSIESDV [GRIN2A, Q12879]",below the threshold
2,"TSSMRGMDAV [RSRC2, Q7L4I2]",below the threshold

# Target: DLG2_2, Q15700
# Sequence (Q15700 189-283): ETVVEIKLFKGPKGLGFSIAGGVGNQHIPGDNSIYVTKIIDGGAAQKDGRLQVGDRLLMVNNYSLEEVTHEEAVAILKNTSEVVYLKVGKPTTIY
# Experiment: holdup assay
# Set-up: key: below the threshold = too weak to quantify, mostly under pKd 3.1 to 4
# Settings: plain residues with an end cap or a label only (N-terminal biotin on a linker: ado-ado)
row,Binder,pKd
1,"KKMPSIESDV [GRIN2A, Q12879]",5.04
2,"TSSMRGMDAV [RSRC2, Q7L4I2]",below the threshold

# Target: T4, DVL3, Q92997
# Experiment: holdup assay
# Set-up: key: below the threshold = too weak to quantify, mostly under pKd 3.1 to 4
# Settings: plain residues with an end cap or a label only (N-terminal biotin on a linker: ado-ado)
row,Binder,pKd
1,"KKMPSIESDV [GRIN2A, Q12879]",below the threshold
2,"TSSMRGMDAV [RSRC2, Q7L4I2]",below the threshold

# Target: GORASP1, Q9BQQ3
# Sequence (Q9BQQ3 1-208): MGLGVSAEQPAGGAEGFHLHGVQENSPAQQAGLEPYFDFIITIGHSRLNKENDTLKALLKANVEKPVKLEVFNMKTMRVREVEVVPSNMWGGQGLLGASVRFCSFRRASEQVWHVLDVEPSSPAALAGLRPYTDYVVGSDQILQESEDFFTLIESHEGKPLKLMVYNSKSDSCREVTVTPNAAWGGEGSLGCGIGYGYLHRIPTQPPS
# Experiment: holdup assay
# Set-up: key: below the threshold = too weak to quantify, mostly under pKd 3.1 to 4
# Settings: plain residues with an end cap or a label only (N-terminal biotin on a linker: ado-ado)
row,Binder,pKd
1,"KKMPSIESDV [GRIN2A, Q12879]",below the threshold
2,"TSSMRGMDAV [RSRC2, Q7L4I2]",below the threshold

# Target: GRIP2_3, Q9C0E4
# Sequence (Q9C0E4 238-339): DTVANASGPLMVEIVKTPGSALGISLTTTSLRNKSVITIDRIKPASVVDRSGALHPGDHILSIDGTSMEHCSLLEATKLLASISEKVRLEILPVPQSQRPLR
# Experiment: holdup assay
# Set-up: key: below the threshold = too weak to quantify, mostly under pKd 3.1 to 4
# Settings: plain residues with an end cap or a label only (N-terminal biotin on a linker: ado-ado)
row,Binder,pKd
1,"KKMPSIESDV [GRIN2A, Q12879]",below the threshold
2,"TSSMRGMDAV [RSRC2, Q7L4I2]",below the threshold

# Target: GRIP2_7, Q9C0E4
# Sequence (Q9C0E4 934-1023): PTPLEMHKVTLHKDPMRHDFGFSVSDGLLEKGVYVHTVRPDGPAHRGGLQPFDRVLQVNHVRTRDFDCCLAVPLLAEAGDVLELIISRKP
# Experiment: holdup assay
# Set-up: key: below the threshold = too weak to quantify, mostly under pKd 3.1 to 4
# Settings: plain residues with an end cap or a label only (N-terminal biotin on a linker: ado-ado)
row,Binder,pKd
1,"KKMPSIESDV [GRIN2A, Q12879]",below the threshold
2,"TSSMRGMDAV [RSRC2, Q7L4I2]",below the threshold

# Target: T5, HTRA3, P83110
# Experiment: holdup assay
# Set-up: key: below the threshold = too weak to quantify, mostly under pKd 3.1 to 4
# Settings: plain residues with an end cap or a label only (N-terminal biotin on a linker: ado-ado)
row,Binder,pKd
1,"KKMPSIESDV [GRIN2A, Q12879]",below the threshold
2,"TSSMRGMDAV [RSRC2, Q7L4I2]",below the threshold

# Target: LIMK2, P53671
# Sequence (P53671 143-248): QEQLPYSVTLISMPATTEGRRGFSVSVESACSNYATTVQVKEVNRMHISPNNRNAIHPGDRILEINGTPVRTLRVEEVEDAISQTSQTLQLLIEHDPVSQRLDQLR
# Experiment: holdup assay
# Set-up: key: below the threshold = too weak to quantify, mostly under pKd 3.1 to 4
# Settings: plain residues with an end cap or a label only (N-terminal biotin on a linker: ado-ado)
row,Binder,pKd
1,"KKMPSIESDV [GRIN2A, Q12879]",below the threshold
2,"TSSMRGMDAV [RSRC2, Q7L4I2]",below the threshold

# Target: MAGI1_2, Q96QZ7
# Sequence (Q96QZ7 456-580): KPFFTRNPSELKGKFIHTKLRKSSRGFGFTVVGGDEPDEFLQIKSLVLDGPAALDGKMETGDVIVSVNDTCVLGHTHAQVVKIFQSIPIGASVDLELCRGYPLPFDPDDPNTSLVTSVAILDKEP
# Experiment: holdup assay
# Set-up: key: below the threshold = too weak to quantify, mostly under pKd 3.1 to 4
# Settings: plain residues with an end cap or a label only (N-terminal biotin on a linker: ado-ado)
row,Binder,pKd
1,"KKMPSIESDV [GRIN2A, Q12879]",below the threshold
2,"TSSMRGMDAV [RSRC2, Q7L4I2]",below the threshold

# Target: T6, NHERF3_3, Q5T2W1
# Experiment: holdup assay
# Set-up: key: below the threshold = too weak to quantify, mostly under pKd 3.1 to 4
# Settings: plain residues with an end cap or a label only (N-terminal biotin on a linker: ado-ado)
row,Binder,pKd
1,"KKMPSIESDV [GRIN2A, Q12879]",below the threshold
2,"TSSMRGMDAV [RSRC2, Q7L4I2]",below the threshold

# Target: NHERF4_2, Q86UT5
# Sequence (Q86UT5 220-308): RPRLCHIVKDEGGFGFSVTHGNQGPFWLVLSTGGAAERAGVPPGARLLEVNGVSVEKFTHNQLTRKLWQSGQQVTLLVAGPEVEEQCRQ
# Experiment: holdup assay
# Set-up: key: below the threshold = too weak to quantify, mostly under pKd 3.1 to 4
# Settings: plain residues with an end cap or a label only (N-terminal biotin on a linker: ado-ado)
row,Binder,pKd
1,"KKMPSIESDV [GRIN2A, Q12879]",below the threshold
2,"TSSMRGMDAV [RSRC2, Q7L4I2]",below the threshold

# Target: T7, PARD3B_1, Q8TEW8
# Experiment: holdup assay
# Set-up: key: below the threshold = too weak to quantify, mostly under pKd 3.1 to 4
# Settings: plain residues with an end cap or a label only (N-terminal biotin on a linker: ado-ado)
row,Binder,pKd
1,"KKMPSIESDV [GRIN2A, Q12879]",below the threshold
2,"TSSMRGMDAV [RSRC2, Q7L4I2]",below the threshold

# Target: PARD3_3, Q8TEW0
# Sequence (Q8TEW0 582-685): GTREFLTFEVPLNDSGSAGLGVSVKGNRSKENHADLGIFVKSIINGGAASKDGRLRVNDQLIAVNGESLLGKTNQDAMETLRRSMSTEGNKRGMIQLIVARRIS
# Experiment: holdup assay
# Set-up: key: below the threshold = too weak to quantify, mostly under pKd 3.1 to 4
# Settings: plain residues with an end cap or a label only (N-terminal biotin on a linker: ado-ado)
row,Binder,pKd
1,"KKMPSIESDV [GRIN2A, Q12879]",below the threshold
2,"TSSMRGMDAV [RSRC2, Q7L4I2]",below the threshold

# Target: T8, PDZD7_3, Q9H5P4
# Experiment: holdup assay
# Set-up: key: below the threshold = too weak to quantify, mostly under pKd 3.1 to 4
# Settings: plain residues with an end cap or a label only (N-terminal biotin on a linker: ado-ado)
row,Binder,pKd
1,"KKMPSIESDV [GRIN2A, Q12879]",below the threshold
2,"TSSMRGMDAV [RSRC2, Q7L4I2]",below the threshold

# Target: SCRIB_1, Q14160
# Sequence (Q14160 718-814): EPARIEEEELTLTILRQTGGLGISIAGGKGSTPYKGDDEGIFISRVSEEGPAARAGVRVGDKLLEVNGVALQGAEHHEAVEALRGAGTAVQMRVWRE
# Experiment: holdup assay
# Set-up: key: below the threshold = too weak to quantify, mostly under pKd 3.1 to 4
# Settings: plain residues with an end cap or a label only (N-terminal biotin on a linker: ado-ado)
row,Binder,pKd
1,"KKMPSIESDV [GRIN2A, Q12879]",4.34
2,"TSSMRGMDAV [RSRC2, Q7L4I2]",below the threshold

# Target: SCRIB_3, Q14160
# Sequence (Q14160 999-1103): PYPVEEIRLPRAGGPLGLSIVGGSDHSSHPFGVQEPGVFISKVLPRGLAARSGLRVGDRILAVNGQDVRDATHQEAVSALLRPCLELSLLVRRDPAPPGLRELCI
# Experiment: holdup assay
# Set-up: key: below the threshold = too weak to quantify, mostly under pKd 3.1 to 4
# Settings: plain residues with an end cap or a label only (N-terminal biotin on a linker: ado-ado)
row,Binder,pKd
1,"KKMPSIESDV [GRIN2A, Q12879]",4.85
2,"TSSMRGMDAV [RSRC2, Q7L4I2]",below the threshold

# Target: T9, SIPA1L2, Q9P2F8
# Experiment: holdup assay
# Set-up: key: below the threshold = too weak to quantify, mostly under pKd 3.1 to 4
# Settings: plain residues with an end cap or a label only (N-terminal biotin on a linker: ado-ado)
row,Binder,pKd
1,"KKMPSIESDV [GRIN2A, Q12879]",below the threshold
2,"TSSMRGMDAV [RSRC2, Q7L4I2]",below the threshold

# Target: T10, SNTA1, Q13424
# Experiment: holdup assay
# Set-up: key: below the threshold = too weak to quantify, mostly under pKd 3.1 to 4
# Settings: plain residues with an end cap or a label only (N-terminal biotin on a linker: ado-ado)
row,Binder,pKd
1,"KKMPSIESDV [GRIN2A, Q12879]",4.59
2,"TSSMRGMDAV [RSRC2, Q7L4I2]",below the threshold

# Target: T11, SNTG1, Q9NSN8
# Experiment: holdup assay
# Set-up: key: below the threshold = too weak to quantify, mostly under pKd 3.1 to 4
# Settings: plain residues with an end cap or a label only (N-terminal biotin on a linker: ado-ado)
row,Binder,pKd
1,"KKMPSIESDV [GRIN2A, Q12879]",4.89
2,"TSSMRGMDAV [RSRC2, Q7L4I2]",below the threshold

# Target: TJP1_2, Q07157
# Sequence (Q07157 181-274): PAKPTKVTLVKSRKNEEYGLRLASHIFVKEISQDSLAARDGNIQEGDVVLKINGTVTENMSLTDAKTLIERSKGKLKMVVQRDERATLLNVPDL
# Experiment: holdup assay
# Set-up: key: below the threshold = too weak to quantify, mostly under pKd 3.1 to 4
# Settings: plain residues with an end cap or a label only (N-terminal biotin on a linker: ado-ado)
row,Binder,pKd
1,"KKMPSIESDV [GRIN2A, Q12879]",below the threshold
2,"TSSMRGMDAV [RSRC2, Q7L4I2]",below the threshold

# Target: TJP2_1, Q9UDY2
# Sequence (Q9UDY2 24-128): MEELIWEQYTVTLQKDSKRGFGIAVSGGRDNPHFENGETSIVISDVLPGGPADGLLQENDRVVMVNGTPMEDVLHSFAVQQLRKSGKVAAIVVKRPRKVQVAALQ
# Experiment: holdup assay
# Set-up: key: below the threshold = too weak to quantify, mostly under pKd 3.1 to 4
# Settings: plain residues with an end cap or a label only (N-terminal biotin on a linker: ado-ado)
row,Binder,pKd
1,"KKMPSIESDV [GRIN2A, Q12879]",below the threshold
2,"TSSMRGMDAV [RSRC2, Q7L4I2]",below the threshold

# Target: T12, TJP3_3, O95049
# Experiment: holdup assay
# Set-up: key: below the threshold = too weak to quantify, mostly under pKd 3.1 to 4
# Settings: plain residues with an end cap or a label only (N-terminal biotin on a linker: ado-ado)
row,Binder,pKd
1,"KKMPSIESDV [GRIN2A, Q12879]",below the threshold
2,"TSSMRGMDAV [RSRC2, Q7L4I2]",below the threshold

# From PMC9482650, “Quantitative fragmentomics allow affinity mapping of interactomes” (Nature Communications, 2022)
